Assay results from patent publication US6416987B1, “Mutants of thymidylate synthase and uses thereof” (Sloan Kettering Institute for Cancer Research, priority 1997, dated 2002).
“Also recorded” adds a separate entry of the source. Where two headings read alike, the source gives them in different places.

Key:
[1] = test system: Mouse TS-negative cells (FSthy21); assay: Rescue of TS-negative cells by transfection of human TS cDNAs; assay type: cell-based; conditions: for TS catalytic function / complementation of growth of TS-negative cells: selective medium lacking thymidine; for FM3A TS cells surviving by transfection: selective medium without thymidine
Source text: Mouse TS-negative cells (FSthy21) were transfected with a plasmid (pcDNA3hTS*) encoding wild-type or a various mutant human TS enzyme by standard DOTAP transfection procedures. The host cells are deficient in TS, which are unable to survive without exogenous thymidine. […] In contrast, cells were unable to survive with transfection of other 11 human TS variants. For each surviving transfectant, at least 12 individual clones were isolated by soft agar or limiting dilution in 96-well plates. Those clones were expanded to cell lines by growth in normal media. Three cell clones for each transfectant were randomly selected for drug sensitivity assay.

[2] = test system: human thymidylate synthase; assay: Kinetic parameters of wild-type and mutant human thymidylate synthases; assay type: biochemical
Protocol: TS activity was monitored spectrophotometrically at 340 nm as described (Wahba et al., 1961). Activity was determined at 30° C. The assay mixture contained 50 mM Tris.HCl, pH 7.4, 25 mM MgCl2, 6.5 mM formadehyde, 1 mM EDTA, 75 mM BME and 100 μM dUMP, CH2H4folate (100 μM) was added to initiate the reaction. Black cuvettes lacked CH2H4folate. A unit of activity is defined as the amount of enzyme required to convert 1 μmol of dUMP to dTMP/minutes at 30° C. Protein was determined from OD280=0.87×10^5 M^−1 cm^−1, which is equivalent to 1.43 OD280/mg of protein.
Michaelis constants (Km's) for CH2H4folate and dUMP were determined from initial velocity measurements, which were obtained by measuring the change in OD340 with a Shimadzu UV-2101 PC spectrophotometer. […] Steady-state kinetic parameters were subsequently obtained by a nonlinear least-squares fit of the data to the Michaelis-Menten equation using a computer program. The kcats were calculated by dividing Vmax by the estimated concentration of enzyme used in the reaction.

human TS = human TS (Homo sapiens, UniProt P04818, Y33H); conditions: vs wild-type TS; cited from earlier work
Sequence of human TS (P04818 whole entry Y33H): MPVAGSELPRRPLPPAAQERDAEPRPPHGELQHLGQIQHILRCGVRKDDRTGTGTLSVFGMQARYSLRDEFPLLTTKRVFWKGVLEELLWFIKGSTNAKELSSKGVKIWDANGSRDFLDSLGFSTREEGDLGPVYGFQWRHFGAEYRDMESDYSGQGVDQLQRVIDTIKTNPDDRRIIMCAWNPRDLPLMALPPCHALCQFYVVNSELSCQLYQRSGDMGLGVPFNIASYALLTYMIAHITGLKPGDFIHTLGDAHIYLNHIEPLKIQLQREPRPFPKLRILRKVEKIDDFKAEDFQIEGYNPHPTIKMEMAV

[3] = CH2H4folate 3 mM, read-out: Km (dUMP)
[4] = dUMP fixed at 200 μM, read-out: Km (CH2H4folate)

Molecule	TS catalytic function / complementation of growth of TS-negative cells [1]	FM3A TS cells surviving by transfection [1]	increase of Km for CH2H4folate over wild-type [2]	increase of Km for dUMP over wild-type [2]	kcat [2]	kcat lower than wild-type TS [2]	Km [2, 3]	Km [2, 4]	drop in kcat (human TS)
D49G: human TS mutant Asp49→Gly (protein) MPVAGSELPRRPLPPAAQERDAEPRPPHGELQYLGQIQHILRCGVRKDGRTGTGTLSVFGMQARYSLRDEFPLLTTKRVFWKGVLEELLWFIKGSTNAKELSSKGVKIWDANGSRDFLDSLGFSTREEGDLGPVYGFQWRHFGAEYRDMESDYSGQGVDQLQRVIDTIKTNPDDRRIIMCAWNPRDLPLMALPPCHALCQFYVVNSELSCQLYQRSGDMGLGVPFNIASYALLTYMIAHITGLKPGDFIHTLGDAHIYLNHIEPLKIQLQREPRPFPKLRILRKVGKIDDFKAEDFQIEGYNPHPTIKMEMAV	able to complement growth; also recorded: retain TS catalytic function; also recorded: able to allow growth	yes	4 fold	4 fold	0.16 s⁻¹	3 fold	12 µM	122 µM	–
F225W: human TS mutant Phe225→Trp (protein) MPVAGSELPRRPLPPAAQERDAEPRPPHGELQYLGQIQHILRCGVRKDDRTGTGTLSVFGMQARYSLRDEFPLLTTKRVFWKGVLEELLWFIKGSTNAKELSSKGVKIWDANGSRDFLDSLGFSTREEGDLGPVYGFQWRHFGAEYRDMESDYSGQGVDQLQRVIDTIKTNPDDRRIIMCAWNPRDLPLMALPPCHALCQFYVVNSELSCQLYQRSGDMGLGVPWNIASYALLTYMIAHITGLKPGDFIHTLGDAHIYLNHIEPLKIQLQREPRPFPKLRILRKVGKIDDFKAEDFQIEGYNPHPTIKMEMAV	able to complement growth; also recorded: active enzymes	yes	4 fold	–	2.3 s⁻¹	–	3.6 µM	165 µM	–
wt: wild-type human thymidylate synthase (recombinant, Pro2 to Leu2 codon modification) (protein, listed as Homo sapiens, Wild type human thymidylate synthase amino acid sequence (Genbank Accession number NP001062)) MPVAGSELPRRPLPPAAQERDAEPRPPHGELQYLGQIQHILRCGVRKDDRTGTGTLSVFGMQARYSLRDEFPLLTTKRVFWKGVLEELLWFIKGSTNAKELSSKGVKIWDANGSRDFLDSLGFSTREEGDLGPVYGFQWRHFGAEYRDMESDYSGQGVDQLQRVIDTIKTNPDDRRIIMCAWNPRDLPLMALPPCHALCQFYVVNSELSCQLYQRSGDMGLGVPFNIASYALLTYMIAHITGLKPGDFIHTLGDAHIYLNHIEPLKIQLQREPRPFPKLRILRKVGKIDDFKAEDFQIEGYNPHPTIKMEMAV	able to complement growth	yes	–	–	0.68 s⁻¹	–	4.4 µM	32.4 µM	–
I108A: human TS mutant Ile108→Ala (protein) MPVAGSELPRRPLPPAAQERDAEPRPPHGELQYLGQIQHILRCGVRKDDRTGTGTLSVFGMQARYSLRDEFPLLTTKRVFWKGVLEELLWFIKGSTNAKELSSKGVKAWDANGSRDFLDSLGFSTREEGDLGPVYGFQWRHFGAEYRDMESDYSGQGVDQLQRVIDTIKTNPDDRRIIMCAWNPRDLPLMALPPCHALCQFYVVNSELSCQLYQRSGDMGLGVPFNIASYALLTYMIAHITGLKPGDFIHTLGDAHIYLNHIEPLKIQLQREPRPFPKLRILRKVGKIDDFKAEDFQIEGYNPHPTIKMEMAV	able to complement growth; also recorded: functional	yes	22 fold	4 fold	0.22 s⁻¹	3 fold	15 µM	746 µM	–
Tyr33 to His33: literature human TS mutant found in a human colon tumor cell line (protein, UniProt P04818 2-313, looked up, variant Y33H) Thymidylate synthase: PVAGSELPRRPLPPAAQERDAEPRPPHGELQHLGQIQHILRCGVRKDDRTGTGTLSVFGMQARYSLRDEFPLLTTKRVFWKGVLEELLWFIKGSTNAKELSSKGVKIWDANGSRDFLDSLGFSTREEGDLGPVYGFQWRHFGAEYRDMESDYSGQGVDQLQRVIDTIKTNPDDRRIIMCAWNPRDLPLMALPPCHALCQFYVVNSELSCQLYQRSGDMGLGVPFNIASYALLTYMIAHITGLKPGDFIHTLGDAHIYLNHIEPLKIQLQREPRPFPKLRILRKVEKIDDFKAEDFQIEGYNPHPTIKMEMAV	–	–	–	–	–	–	–	–	8 fold
